Measured values: paper PMC6317261, “Functional dissection of the developmentally restricted BEN domain chromatin boundary factor Insensitive” (Epigenetics & Chromatin, 2019)

Tests used:
[1] = target: the molecule itself; assay: cross-linking; glutaraldehyde, 10 min at room temperature in PBS with 1 mM beta-mercaptoethanol; protein adjusted to 10 uM; SDS-PAGE, silver staining
[2] = target: the molecule itself; assay: cross-linking; EGS, increasing amounts, 10 min at room temperature in PBS with 1 mM beta-mercaptoethanol; protein adjusted to 10 uM; SDS-PAGE, silver staining
[3] = target: the molecule itself; assay: SEC; Superdex 200 10/300 column; 500 uL of the eluted protein loaded; sizes estimated against Bio-Rad standards (1.35 to 670 kDa)
GST:BEN = target: T1, GST:BEN (UniProt Q8SYK5 258-356); assay: EMSA; EMSA: 25 mM Tris-HCl pH 7.4, 100 mM KCl, 1 mM EDTA, 0.1 mM DTT, 0.1 mM PMSF, 0.03 mg/mL BSA, 10% glycerol, 0.5% Triton X-100, 0.25 mg/mL poly(dI-dC), 30 min room temperature; conditions: protein: recombinant; tags: N-terminal GST; chain copies: 2; label: 5'-32P; blunt
T1 sequence: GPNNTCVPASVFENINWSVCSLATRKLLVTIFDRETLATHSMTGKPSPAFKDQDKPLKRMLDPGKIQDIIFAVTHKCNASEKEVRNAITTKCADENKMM

GST:C-BEN = target: T2, GST:C-BEN (UniProt Q8SYK5 210-376); assay: as above; conditions: protein: recombinant; tags: N-terminal GST; chain copies: 2; label: 5'-32P; blunt
T2 sequence: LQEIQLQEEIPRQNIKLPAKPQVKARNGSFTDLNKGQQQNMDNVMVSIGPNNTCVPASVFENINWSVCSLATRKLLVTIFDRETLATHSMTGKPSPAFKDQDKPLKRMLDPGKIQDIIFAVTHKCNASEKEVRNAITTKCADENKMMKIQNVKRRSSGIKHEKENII

GST:N-terminal 213 aa = target: T3, GST:N-terminal 213 aa (UniProt Q8SYK5 1-213); assay: EMSA; data not shown; EMSA: 25 mM Tris-HCl pH 7.4, 100 mM KCl, 1 mM EDTA, 0.1 mM DTT, 0.1 mM PMSF, 0.03 mg/mL BSA, 10% glycerol, 0.5% Triton X-100, 0.25 mg/mL poly(dI-dC), 30 min room temperature; conditions: protein: recombinant; tags: N-terminal GST; label: 5'-32P; blunt
T3 sequence: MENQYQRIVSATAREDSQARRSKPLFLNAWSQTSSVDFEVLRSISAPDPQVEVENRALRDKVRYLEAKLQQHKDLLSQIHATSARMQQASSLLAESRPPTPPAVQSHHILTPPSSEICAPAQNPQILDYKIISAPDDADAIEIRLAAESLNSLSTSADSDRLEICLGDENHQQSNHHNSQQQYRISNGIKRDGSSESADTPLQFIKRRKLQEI

HT:F-Insv = target: T4, HT:F-Insv (UniProt Q8SYK5 1-376); assay: EMSA; 0.0005-0.5 uM protein; EMSA: 25 mM Tris-HCl pH 7.4, 100 mM KCl, 1 mM EDTA, 0.1 mM DTT, 0.1 mM PMSF, 0.03 mg/mL BSA, 10% glycerol, 0.5% Triton X-100, 0.25 mg/mL poly(dI-dC), 30 min room temperature; conditions: protein: recombinant; tags: N-terminal His-Thioredoxin; label: 5'-32P; blunt
T4 sequence: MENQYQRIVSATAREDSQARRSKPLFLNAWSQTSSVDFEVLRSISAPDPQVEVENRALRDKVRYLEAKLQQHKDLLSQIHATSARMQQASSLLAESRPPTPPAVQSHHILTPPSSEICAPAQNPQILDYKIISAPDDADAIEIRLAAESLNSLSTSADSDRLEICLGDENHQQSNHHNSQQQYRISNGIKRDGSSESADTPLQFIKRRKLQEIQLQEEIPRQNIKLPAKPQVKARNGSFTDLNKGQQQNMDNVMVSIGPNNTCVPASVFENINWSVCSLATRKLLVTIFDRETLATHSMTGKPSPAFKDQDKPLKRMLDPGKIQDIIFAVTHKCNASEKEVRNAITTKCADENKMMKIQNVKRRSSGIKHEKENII

GST:F-Insv = target: T5, GST:F-Insv (UniProt Q8SYK5 1-376); assay: EMSA; closely spaced doublet; EMSA: 25 mM Tris-HCl pH 7.4, 100 mM KCl, 1 mM EDTA, 0.1 mM DTT, 0.1 mM PMSF, 0.03 mg/mL BSA, 10% glycerol, 0.5% Triton X-100, 0.25 mg/mL poly(dI-dC), 30 min room temperature; conditions: protein: recombinant; tags: N-terminal GST; label: 5'-32P; blunt
T5 sequence: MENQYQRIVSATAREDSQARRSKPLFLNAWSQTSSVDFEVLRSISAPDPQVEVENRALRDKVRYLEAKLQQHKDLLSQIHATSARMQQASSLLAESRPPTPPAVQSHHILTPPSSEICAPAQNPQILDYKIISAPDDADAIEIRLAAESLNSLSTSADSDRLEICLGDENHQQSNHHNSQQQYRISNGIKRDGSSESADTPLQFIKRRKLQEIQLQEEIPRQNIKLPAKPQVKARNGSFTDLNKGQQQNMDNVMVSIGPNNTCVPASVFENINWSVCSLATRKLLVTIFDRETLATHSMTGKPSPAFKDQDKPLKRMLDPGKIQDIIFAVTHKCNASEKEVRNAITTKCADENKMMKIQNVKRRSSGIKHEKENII

HS:C-BEN = target: T6, HS:C-BEN (UniProt Q8SYK5 210-376); assay: EMSA; two shifts; slower one predominates at high protein; EMSA: 25 mM Tris-HCl pH 7.4, 100 mM KCl, 1 mM EDTA, 0.1 mM DTT, 0.1 mM PMSF, 0.03 mg/mL BSA, 10% glycerol, 0.5% Triton X-100, 0.25 mg/mL poly(dI-dC), 30 min room temperature; conditions: protein: recombinant; tags: N-terminal His-Sumo; chain copies: 2; label: 5'-32P; blunt
T6 sequence: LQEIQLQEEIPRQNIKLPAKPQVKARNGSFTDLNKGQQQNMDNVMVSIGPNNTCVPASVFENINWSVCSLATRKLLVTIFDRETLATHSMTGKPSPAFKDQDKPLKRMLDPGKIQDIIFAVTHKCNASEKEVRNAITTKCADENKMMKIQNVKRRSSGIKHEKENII

HS:F-Insv = target: T7, HS:F-Insv (UniProt Q8SYK5 1-376); assay: EMSA; gel-filtration fractions ~420-120 kDa; early aggregate fractions give no shift; EMSA: 25 mM Tris-HCl pH 7.4, 100 mM KCl, 1 mM EDTA, 0.1 mM DTT, 0.1 mM PMSF, 0.03 mg/mL BSA, 10% glycerol, 0.5% Triton X-100, 0.25 mg/mL poly(dI-dC), 30 min room temperature; conditions: protein: recombinant; tags: N-terminal His-Sumo; label: 5'-32P; blunt
T7 sequence: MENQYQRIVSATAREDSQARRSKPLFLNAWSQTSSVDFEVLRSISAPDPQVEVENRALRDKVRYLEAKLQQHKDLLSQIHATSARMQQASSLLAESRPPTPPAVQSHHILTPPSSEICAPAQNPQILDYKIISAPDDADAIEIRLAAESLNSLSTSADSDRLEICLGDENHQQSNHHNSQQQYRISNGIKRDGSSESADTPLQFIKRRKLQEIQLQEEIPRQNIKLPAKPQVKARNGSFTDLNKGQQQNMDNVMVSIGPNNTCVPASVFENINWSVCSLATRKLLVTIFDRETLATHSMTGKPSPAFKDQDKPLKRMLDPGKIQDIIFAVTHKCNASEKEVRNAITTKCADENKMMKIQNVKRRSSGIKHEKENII

B1: HT:N1-267 (domain or fragment, Drosophila, UniProt Q8SYK5 1-267, looked up)
chain: MENQYQRIVSATAREDSQARRSKPLFLNAWSQTSSVDFEVLRSISAPDPQVEVENRALRDKVRYLEAKLQQHKDLLSQIHATSARMQQASSLLAESRPPTPPAVQSHHILTPPSSEICAPAQNPQILDYKIISAPDDADAIEIRLAAESLNSLSTSADSDRLEICLGDENHQQSNHHNSQQQYRISNGIKRDGSSESADTPLQFIKRRKLQEIQLQEEIPRQNIKLPAKPQVKARNGSFTDLNKGQQQNMDNVMVSIGPNNTCVPAS
notes: source: E. coli, purified (Ni-NTA Agarose); not shown: His6, N-terminal, kept; Thioredoxin, N-terminal, kept
For B1, the “stoichiometry N” value [1] was 4.

B2: HT:N1-111 (domain or fragment, Drosophila, UniProt Q8SYK5 1-111, looked up)
chain: MENQYQRIVSATAREDSQARRSKPLFLNAWSQTSSVDFEVLRSISAPDPQVEVENRALRDKVRYLEAKLQQHKDLLSQIHATSARMQQASSLLAESRPPTPPAVQSHHILT
notes: Insensitive (Insv), Drosophila, residues 1-111: includes the predicted coiled-coil domain (about 51-104); source: E. coli, purified (Ni-NTA Agarose); not shown: His6, N-terminal, kept; Thioredoxin, N-terminal, kept
With B2 the “stoichiometry N” value [1] was 4.

B3: HT:N1-213 (domain or fragment, Drosophila, UniProt Q8SYK5 1-213, looked up)
chain: MENQYQRIVSATAREDSQARRSKPLFLNAWSQTSSVDFEVLRSISAPDPQVEVENRALRDKVRYLEAKLQQHKDLLSQIHATSARMQQASSLLAESRPPTPPAVQSHHILTPPSSEICAPAQNPQILDYKIISAPDDADAIEIRLAAESLNSLSTSADSDRLEICLGDENHQQSNHHNSQQQYRISNGIKRDGSSESADTPLQFIKRRKLQEI
notes: as for B1
With B3 the “stoichiometry N” value [2] was 4.

B4: His-Sumo C-BEN (HS:C-BEN) (domain or fragment, Drosophila, UniProt Q8SYK5 210-376, looked up)
chain: LQEIQLQEEIPRQNIKLPAKPQVKARNGSFTDLNKGQQQNMDNVMVSIGPNNTCVPASVFENINWSVCSLATRKLLVTIFDRETLATHSMTGKPSPAFKDQDKPLKRMLDPGKIQDIIFAVTHKCNASEKEVRNAITTKCADENKMMKIQNVKRRSSGIKHEKENII
notes: Insensitive (Insv), Drosophila; C domain plus BEN domain; 'lacks amino acids 1-209'; elsewhere the C domain is said to extend from aa 209 to aa 253; about 32 kDa with the tag; source: E. coli, purified (Ni-NTA Agarose); not shown: His6, N-terminal, kept; Sumo, N-terminal, kept
B4 was tested, and the “stoichiometry N” value [3] was 2 and the “stoichiometry N” value [1] was 4.

B5: P3 (dsDNA)
DNA 1: CCACCGCAAAATCCAATTGGAAGAGAGCGACT
DNA 2: AGTCGCTCTCTTCCAATTGGATTTTGCGGTGG
B5: binds (GST:BEN); binds (GST:C-BEN); no binding (GST:N-terminal 213 aa). B5: binds (HT:F-Insv); binds (GST:F-Insv); binds (HS:C-BEN). B5: binds (HS:F-Insv).
